Test results reported in PMC5110118.

Biological target: C-terminal NanoLuc luciferase fragment, residues 66–171 (66C), bacterial construct
Test: split reporter

- fold increase in luminescence over 66C alone: 10 fold
Substance: N-terminal NanoLuc luciferase fragment, residues 1–65 (N65), bacterial construct (domain or fragment)
